Test results from patent US20040023883A1 (published 2004).

Columns and labels:
[1] = target: T1, IGF-I F49A on phage (G1S-A70V template) (human; bacteriophage M13); test: competitive phage ELISA; conditions: remark: other sources report otherwise
T1 chain: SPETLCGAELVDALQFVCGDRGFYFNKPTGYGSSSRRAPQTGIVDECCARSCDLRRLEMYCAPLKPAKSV

[2] = target: IGF-I S1A on phage (G1S-A70V template) (human; bacteriophage M13); test: competitive phage ELISA
Description: (§1) Phage particles were harvested and resuspended in PBS buffer as described in Lowman, H. B., “Phage Display of Peptide Libraries on Protein Scaffolds,” in Cabilly, S. (ed.), Combinatorial Peptide Library Protocols (Humana Press Inc.: Totowa, N.J., 1998), pp. 249-264. Then phage concentrations were normalized to yield a maximal ELISA signal of 0.2-0.4 for each mutant (Lowman, in Cabilly, S. (ed.), supra). […] After blocking, the plates containing immobilized target were washed with 0.05% TWEEN™/PBS buffer and subsequently incubated with 80 μl/well of the premixed phage-competitor solutions for 1 hour at room temperature. After washing, bound phage was detected with 80 μl/well of a solution containing a primary rabbit anti-phage polyclonal antibody and a secondary goat anti-rabbit monoclonal antibody-horseradish peroxidase conjugate in 0.5% TWEEN 20™/PBS. o-Phenylenediamine (Sigma) and tetramethylbenzidine (Kirkegaard and Perry) were used as chromogenic substrates, resulting in product detection at 492 and 450 nm, respectively. IC₅₀ values were determined by fitting the binding data to a generic saturation curve (Lowman, in Cabilly, S. (ed.), supra).
(§2) At least two different clones of every mutant were tested.

[3] = target: T2, IGF-I P2A on phage (G1S-A70V template) (human; bacteriophage M13); test: competitive phage ELISA
T2 construct: not shown: M13 gene III fragment (residues 249-406), the display carrier, and its junction to IGF-I
Description: as §1, §2

[4] = target: T1, IGF-I F49A on phage (G1S-A70V template) …; test: competitive phage ELISA; ratio against IGFBP-3; conditions: remark: other sources report otherwise

B1: human IGFBP-1 (other, UniProt P08833 26-259, looked up)
chain: APWQCAPCSAEKLALCPPVSASCSEVTRSAGCGCCPMCALPLGAACGVATARCARGLSCRALPGEQQPLHALTRGQGACVQESDASAPHAAEAGSPESPESTEITEEELLDNFHLMAPSEEDHSILWDAISTYDGSKALHVTNIKKWKEPCRIELYRVVESLAKAQETSGEEISKFYLPNCNKNGFYHSRQCETSMDGEAGLCWCVYPWNGKRIPGSPEIRGDPNCQIYFNVQN
notes: Recombinant secreted protein
For B1, the relative IC50 (IC50 mut/IC50 G1S-A70V) [1] was over 100, the IC50 [2] was 5.2 nM and the IC50 [3] was 11 nM. For the same binder, the relative specificity (relative IC50 IGFBP-1/relative IC50 IGFBP-3) [4] was over 28.
